Measurements from patent US20240043859A1, “HERBICIDE-RESISTANT PROTEIN, AND GENE AND USE THEREOF” (QINGDAO KINGAGROOT CHEMICAL COMPOUND CO., LTD., priority 2020, published 2024).
Entries after “also recorded” stand apart in the source; their conditions may differ.

Key:
[1] = Chromogenic reaction of degrading herbicides in bacteria: 2,4-D; type: cell-based, Escherichia coli; conditions: recombinant E. coli expressing the gene, 2,4-D added to the medium, red = phenols
How it was run: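 Colour from 2,4-D degradation was detected at A510 after 5 min at room temperature, with 4-aminoantipyrine and ferricyanide added to culture supernatant in pH 10 borate. Cultures were AAD12-expressing or empty-vector (pET15b) BL21(DE3), grown overnight at 28 °C with 0.5 mM 2,4-D, 0.1 mM IPTG and 2 mM α-ketoglutarate.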

[2] = type: cell-based, Escherichia coli
[3] = Chromogenic reaction of degrading herbicides in bacteria: triclopyr; type: cell-based, Escherichia coli; conditions: recombinant E. coli expressing the gene
Arabidopsis thaliana [4] = experiment: Herbicide resistance of transgenic Arabidopsis thaliana seedlings on plate medium (root growth); type: in vivo; conditions: Arabidopsis overexpressing the gene
How it was run: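 After 3 days of cold treatment at 4 °C, seeds were cultured at 22 °C under a 16 h/8 h light cycle on MS herbicide medium (0.3 μM 2,4-D in the screen). Root growth was scored against wild-type seedlings at one week. The material was T2 AAD-overexpressing lines (AtUbi10 promoter, MAS terminator, hygromycin marker), two events each, tested with 2,4-D, 2,4-DB sodium and MCPA.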

Arabidopsis thaliana [5] = experiment: as above; type: in vivo; conditions: plate medium with 2,4-D (0.3 μmol)

Row | Molecule | Chromogenic reaction of degrading herbicides in bacteria: 2,4-D [1] | Chromogenic reaction of degrading herbicides in bacteria: 2,4-D ([1]; listed as D47) | Chromogenic reaction of degrading herbicides in bacteria: MCPA [2] | Chromogenic reaction of degrading herbicides in bacteria: Triclopyr [3] | Chromogenic reaction of degrading herbicides in bacteria: Triclopyr ([3]; listed as D47) | Resistance of transgenic Arabidopsis thaliana: 2,4-D (Arabidopsis thaliana [4]) | Resistance of transgenic Arabidopsis thaliana: MCPA (Arabidopsis thaliana [4]) | 2,4-D resistance of T1 generation transgenic seedlings (seminal root growth) (Arabidopsis thaliana [5]) | Chromogenic reaction of degrading herbicides in bacteria: 2,4-D ([1]; listed as D46) | Chromogenic reaction of degrading herbicides in bacteria: Triclopyr ([3]; listed as D46) | Chromogenic reaction of degrading herbicides in bacteria: 2,4-D ([1]; listed as D48) | Chromogenic reaction of degrading herbicides in bacteria: Triclopyr ([3]; listed as D48)
1 | QYD47: AAD-like enzyme, SEQ ID NO. 93 (protein, Synthetic polypeptide, QYD47, D47) MATRLEIKPLDATFGAVVTGIKLAEIDEATWRELHATWLKYALLVFPGQFLKRDQQIAFAKHFGPLEFEMAAISNVKSDGTLRIEKDNDDVMKILKGNMGWHADSTYMPVQAKGAVFSAEEVPTVGGQTGWADMRAAYDALDDARRARVETLQAYHSLHYSQSKLGHETRKSDGEYSGYGLHNGPIPLRPLVKTHPETGRKSLLIGRHAHDIPGMDREESQSFLEELVDFACRPPRIYHHDWAAGDAVVWDNRCLLHQATPWDMTQRRIMWHSRIAGDPASESALAA | Yes | could degrade 2,4-D; also recorded: capable of degrading 2,4-D | Yes | Yes | slight degradation | Yes | Yes | showing tolerance to 2,4-D | – | – | – | –
2 | QYD46: AAD-like enzyme, SEQ ID NO. 91 (protein, Synthetic polypeptide, QYD46, D46) MARAFYITPLDATFGAVVTGVKLVDLDDAGWRELHAAWLQYALLVFPGQYLKRDQQIAFARRFGPLEFEMVAISNVRSDGTLRVEKDNDDVMKILKGNMGWHADSTYMPVQAKGAVFSAEVVPTIGGHTGFADMRAAYDALDDVRKARVENLQARHSLHYSQSKLGHETKKSDGEYHGYGLHDGPVPLRPLVKTHPETGRKSLLIGRHAHAIPGMDGPESEAFLQELIDFACQPPRIYHHDWAAGDAVLWDNRCLLHQATPWDMTQKRIMWHSRIAGDPASESALAH | Yes | – | Yes | Yes | – | Yes | Yes | showing tolerance to 2,4-D | could degrade 2,4-D; also recorded: capable of degrading 2,4-D | slight degradation | – | –
3 | QYD48: AAD-like enzyme, SEQ ID NO. 95 (protein, Synthetic polypeptide, QYD48, D48) MTDRLEIKPLDATFGAVVTGIRLAEIDEPTWRELHATWLKYALLVFPGQHLQRDQQIAFAKRFGPLEFEMAAISNVKSDGTLRIEEDNDDMMKILKGNMGWHADSTYMPVQAKGAVFSAEEVPTIGGQTGWADMRAAYDALDEARKAQIESLQAYHSLHYSQSQLGHQTGKSDGEYSGYGLHDGPVPLRPLVKTHPETGRKSLLIGRHAHNIPGMDRDEARRLLEGLIDFACQPPRIYHHDWAAGDAVVWDNRCLLHQATPWDMTQRRIMWHSRIAGDPASESALAA | Yes | – | Yes | Yes | – | Yes | Yes | showing tolerance to 2,4-D | – | – | could degrade 2,4-D; also recorded: capable of degrading 2,4-D | slight degradation
